Laboratory results taken from article PMC9663308 (2022).
Where a chain is given by its changes, count along the chain named. Ends that are not written are not given here.

T1: ClpA D1 pore-2 loop variant QTQ (AAS 295–297 to QTQ), hexamer (E. coli, UniProt P0ABH9 1-758, M169T | 295–297 AAS to QTQ)
T1 sequence: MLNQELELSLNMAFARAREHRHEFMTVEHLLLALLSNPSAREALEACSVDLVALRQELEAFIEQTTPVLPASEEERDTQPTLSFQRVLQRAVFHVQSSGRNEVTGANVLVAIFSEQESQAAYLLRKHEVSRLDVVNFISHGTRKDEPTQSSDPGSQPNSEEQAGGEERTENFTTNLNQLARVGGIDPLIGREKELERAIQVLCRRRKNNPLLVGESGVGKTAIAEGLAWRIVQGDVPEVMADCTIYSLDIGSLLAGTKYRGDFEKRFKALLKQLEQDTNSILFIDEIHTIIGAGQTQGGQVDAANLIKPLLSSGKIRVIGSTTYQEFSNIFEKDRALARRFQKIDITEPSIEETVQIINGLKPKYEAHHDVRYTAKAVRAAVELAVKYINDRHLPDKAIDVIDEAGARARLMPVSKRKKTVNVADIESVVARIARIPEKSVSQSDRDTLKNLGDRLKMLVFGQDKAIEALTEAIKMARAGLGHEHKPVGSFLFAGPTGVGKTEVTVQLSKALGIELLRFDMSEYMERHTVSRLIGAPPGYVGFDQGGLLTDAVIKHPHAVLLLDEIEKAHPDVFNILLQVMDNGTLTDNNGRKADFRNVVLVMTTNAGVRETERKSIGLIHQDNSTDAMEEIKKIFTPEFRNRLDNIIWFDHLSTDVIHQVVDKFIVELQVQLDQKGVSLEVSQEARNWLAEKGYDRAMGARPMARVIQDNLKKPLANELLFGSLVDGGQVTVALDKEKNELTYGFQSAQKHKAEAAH

T2: ClpS adaptor (E. coli, UniProt P0A8Q6 1-106)
T2 chain: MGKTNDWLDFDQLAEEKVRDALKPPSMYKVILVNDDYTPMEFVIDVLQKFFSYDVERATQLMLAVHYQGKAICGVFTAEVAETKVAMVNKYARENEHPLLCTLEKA

T3: ClpA D1 pore-2 loop variant Δ295–297, hexamer (E. coli, UniProt P0ABH9 1-758, M169T | Δ295–297)
T3 sequence: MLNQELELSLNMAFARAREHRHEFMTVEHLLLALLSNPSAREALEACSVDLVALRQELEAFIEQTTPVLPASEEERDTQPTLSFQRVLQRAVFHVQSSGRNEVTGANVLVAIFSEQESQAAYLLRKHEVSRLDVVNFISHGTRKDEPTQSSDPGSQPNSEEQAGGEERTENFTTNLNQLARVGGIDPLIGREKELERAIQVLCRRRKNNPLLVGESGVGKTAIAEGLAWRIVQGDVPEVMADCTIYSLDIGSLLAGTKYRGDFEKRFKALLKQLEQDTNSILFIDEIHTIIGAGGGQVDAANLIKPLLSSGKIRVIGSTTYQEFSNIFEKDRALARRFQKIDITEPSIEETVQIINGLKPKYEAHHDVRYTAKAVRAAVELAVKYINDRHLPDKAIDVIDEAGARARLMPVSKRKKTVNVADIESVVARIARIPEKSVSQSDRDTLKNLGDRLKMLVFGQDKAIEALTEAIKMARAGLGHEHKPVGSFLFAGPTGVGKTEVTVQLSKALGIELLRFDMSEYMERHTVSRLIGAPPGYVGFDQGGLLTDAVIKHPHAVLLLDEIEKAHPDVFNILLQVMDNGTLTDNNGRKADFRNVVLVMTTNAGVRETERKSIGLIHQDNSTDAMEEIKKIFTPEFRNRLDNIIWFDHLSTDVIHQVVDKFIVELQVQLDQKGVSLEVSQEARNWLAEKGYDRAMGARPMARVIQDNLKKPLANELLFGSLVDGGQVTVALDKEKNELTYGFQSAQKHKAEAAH

T4: ClpA D1 pore-2 loop variant KYR (AAS 295–297 to KYR), hexamer (E. coli, UniProt P0ABH9 1-758, M169T | 295–297 AAS to KYR)
T4 sequence: T1 sequence with Q295K, T296Y, Q297R

T5: ClpA D1 pore-2 loop variant GGG (AAS 295–297 to GGG), hexamer (E. coli, UniProt P0ABH9 1-758, M169T | 295–297 AAS to GGG)
T5 sequence: T1 sequence with Q295G, T296G, Q297G

B1: ClpS•N-degron peptide complex (ClpS with LLYVQRDSKEC-fluorescein) (complex)
chain 1: T2 chain
chain 2: LLYVQRDSKEC
modifications: fluorescein (printed as LLYVQRDSKEC-fluorescein)

How the values were obtained:
[1] = target: T6, ClpA (laboratory 'wild-type' ClpA carrying M169T), hexamer (E. coli, UniProt P0ABH9 1-758, M169T); assay: FP
[2] = target: T1, ClpA D1 pore-2 loop variant QTQ (AAS …); assay: FP
ClpS adaptor = target: T2, ClpS adaptor; assay: FP
[3] = target: T3, ClpA D1 pore-2 loop variant Δ295–297, …; assay: FP
[4] = target: T4, ClpA D1 pore-2 loop variant KYR (AAS …); assay: FP
[5] = target: T5, ClpA D1 pore-2 loop variant GGG (AAS …); assay: FP
[6] = target: T6, ClpA (laboratory 'wild-type' ClpA …); assay: FP; equimolar ClpA6 + ClpS titrated against N-degron peptide
[7] = target: T1, ClpA D1 pore-2 loop variant QTQ (AAS …); assay: as above
[8] = target: T3, ClpA D1 pore-2 loop variant Δ295–297, …; assay: as above
[9] = target: T4, ClpA D1 pore-2 loop variant KYR (AAS …); assay: as above
[10] = target: T5, ClpA D1 pore-2 loop variant GGG (AAS …); assay: as above

| Binder | Kd [1] [nM] | Kd [2] [nM] | Kd (ClpS adaptor) [nM] | Kd [3] [nM] | Kd [4] [nM] | Kd [5] [nM] | Kd [6] [nM] | Kd [7] [nM] | Kd [8] [nM] | Kd [9] [nM] | Kd [10] [nM] |
| --- | --- | --- | --- | --- | --- | --- | --- | --- | --- | --- | --- |
| LLYVQRDSKEC-fluorescein (not fully specified (residue 11); printed as LLYVQRDSKEC-fluorescein) [LLYVQRDSKEC-fluorescein N-degron synthetic peptide] | 1200 | 900 | 2600 | 1200 | 550 | 670 |  |  |  |  |  |
| B1 |  |  |  |  |  |  | 56 | 65 | 44 | 73 | 41 |
